The record followed here is patent publication US20180125892A1 (published 2018).

In the test the target is T1, human CD20 (human, UniProt P11836 1-297).
T1 construct: whole, on cells; cell-surface antigen; also called MS4A1
T1 sequence (looked up): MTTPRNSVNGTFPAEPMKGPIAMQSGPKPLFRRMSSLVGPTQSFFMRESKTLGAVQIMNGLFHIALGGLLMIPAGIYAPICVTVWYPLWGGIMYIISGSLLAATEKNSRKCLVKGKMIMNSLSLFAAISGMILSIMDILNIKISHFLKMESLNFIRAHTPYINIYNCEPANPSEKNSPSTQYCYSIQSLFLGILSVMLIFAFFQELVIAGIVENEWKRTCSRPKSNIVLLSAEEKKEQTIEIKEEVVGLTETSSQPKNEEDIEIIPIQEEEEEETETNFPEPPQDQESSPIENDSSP
Description: worded conclusion from JNL NFAT-luciferase reporter co-culture with CD20-positive cell lines. An excerpt: To evaluate the functional ability of CD20 CARs to activate JNL cells, they were co-cultured with target cancer cells to read out their activation by quantifying luciferase expression. The humanized scFv-based CARs CD20-C2H1, -C2H2, -C2H3, -C2H4, -C3H1, -C3H2, -C3H3, -C3H4, -C5H1, -C5H2, -C5H3, -C5H4, -C8H1, -C8H2, -C8H3, and -C8H4, were compared to CD20-8aBBz and CD20-3, -3m, -3J, -3H5k3, and -3H5k1. The control CARs CD20-3 and CD20-8aBBz were used in all assays to compare assay variation and/or act as a control. The EGFRvIII CAR T cells (CAR 2174, Johnson et al., Science Translational Medicine 2015) were used as non-targeting control.
JNL CART cells were co-cultured with the Burkitt's lymphoma line Raji (RRID: CVCL_0511) and the diffuse large B cell lymphoma (DLBCL) lines Pfeiffer (RRID: CVCL_3326), HBL-1 (RRID: CVCL_4213) and TMD8 (RRID: CVCL_A442); K562 (RRID: CVCL_0004), a chronic myelogenous leukemia (CML) cell line, served as CD20-negative control. Co-cultures were set up in 384-well plates at effector-to-target (E:T) ratios of 4:1, 2:1, 1:1 and 0.5:1 and incubated for 24 h, after which the expression of luciferase by the activated JNL CAR T cells was quantified by britelite plus Reporter Gene Assay System (PerkinElmer, Waltham, Mass.). The amount of light emitted from each well (Luminescence) was a direct read-out of JNL activation by the respective CAR. […] Some of the humanized scFvs, which were fused to the transmembrane and signaling domains of the CARs, seem to have improved the efficacy of CARs to activate JNL T cells. These were CD20-C2H1, -C2H3, -C5H1, -C5H2, and -C8H3.

B1: CD20-C8H1 CAR (other)
chain: QVQLVQSGAEVKKPGASVKVSCKASGYTFTRYNMHWVRQAPGQRLEWMGAIYPGNGDTSYSQKFKGRVTITADKSASTAYMELSSLRSEDTAVYYCARSFFYGSSDWYFDVWGQGTTVTVSSGGGGSGGGGSGGGGSGGGGSEIVLTQSPDFQSVTPKEKVTITCRASSSVNNMHWYQQKPDQSPKPLIYATSNLASGVPSRFSGSGSGTDYTLTINSLEAEDAATYYCQQWIFNPPTFGQGTKLEIKTTTPAPRPPTPAPTIASQPLSLRPEACRPAAGGAVHTRGLDFACDIYIWAPLAGTCGVLLLSLVITLYCKRGRKKLLYIFKQPFMRPVQTTQEEDGCSCRFPEEEEGGCELRVKFSRSADAPAYQQGQNQLYNELNLGRREEYDVLDKRRGRDPEMGGKPRRKNPQEGLYNELQKDKMAEAYSEIGMKGERRRGKGHDGLYQGLSTATKDTYDALHMQALPPR
notes: CAR on cell surface; residues 1-21 = signal peptide
With B1, the binding result is “binds”.

B2: CD20-C8H3 CAR (other)
chain: QVQLVQSGAEVKKPGSSVKVSCKASGYTFTRYNMHWVRQAPGQGLEWMGAIYPGNGDTSYSQKFKGRVTITADKSTSTAYMELSSLRSEDTAVYYCARSFFYGSSDWYFDVWGQGTTVTVSSGGGGSGGGGSGGGGSGGGGSEIVLTQSPDFQSVTPKEKVTITCRASSSVNNMHWYQQKPDQSPKPLIYATSNLASGVPSRFSGSGSGTDYTLTINSLEAEDAATYYCQQWIFNPPTFGQGTKLEIKTTTPAPRPPTPAPTIASQPLSLRPEACRPAAGGAVHTRGLDFACDIYIWAPLAGTCGVLLLSLVITLYCKRGRKKLLYIFKQPFMRPVQTTQEEDGCSCRFPEEEEGGCELRVKFSRSADAPAYQQGQNQLYNELNLGRREEYDVLDKRRGRDPEMGGKPRRKNPQEGLYNELQKDKMAEAYSEIGMKGERRRGKGHDGLYQGLSTATKDTYDALHMQALPPR
notes: as for B1
As to B2, the binding result is on record as “binds”.

B3: CD20-C5H1 CAR (other)
chain: QVQLVQSGAEVKKPGASVKVSCKASGYTFTSYNMHWVRQAPGQGLEWMGAIYPGNGDTSYNPKFKGRVTMTADKSTRTAYMELSSLRSEDTAVYYCARSYFYGSSSWYFDVWGQGTTVTVSSGGGGSGGGGSGGGGSGGGGSEIVLTQSPATLSLSPGERATLSCRASSSVSSMHWYQQKPGQAPRPLIFATSNLASGIPARFSGSGSGTDYTLTISSLEPEDAAVYYCQQWIFNPPTFGGGTKVEIKTTTPAPRPPTPAPTIASQPLSLRPEACRPAAGGAVHTRGLDFACDIYIWAPLAGTCGVLLLSLVITLYCKRGRKKLLYIFKQPFMRPVQTTQEEDGCSCRFPEEEEGGCELRVKFSRSADAPAYQQGQNQLYNELNLGRREEYDVLDKRRGRDPEMGGKPRRKNPQEGLYNELQKDKMAEAYSEIGMKGERRRGKGHDGLYQGLSTATKDTYDALHMQALPPR
notes: as for B1
Consider B3, for which the binding result was “binds”.

B4: CD20-C5H3 CAR (other)
chain: QVQLVQSGAEVKKPGSSVKVSCKASGYTFTSYNMHWVRQAPGQGLEWMGAIYPGNGDTSYNPKFKGRVTITADKSTRTAYMELSSLRSEDTAVYYCARSYFYGSSSWYFDVWGQGTTVTVSSGGGGSGGGGSGGGGSGGGGSEIVLTQSPATLSLSPGERATLSCRASSSVSSMHWYQQKPGQAPRPLIFATSNLASGIPARFSGSGSGTDYTLTISSLEPEDAAVYYCQQWIFNPPTFGGGTKVEIKTTTPAPRPPTPAPTIASQPLSLRPEACRPAAGGAVHTRGLDFACDIYIWAPLAGTCGVLLLSLVITLYCKRGRKKLLYIFKQPFMRPVQTTQEEDGCSCRFPEEEEGGCELRVKFSRSADAPAYQQGQNQLYNELNLGRREEYDVLDKRRGRDPEMGGKPRRKNPQEGLYNELQKDKMAEAYSEIGMKGERRRGKGHDGLYQGLSTATKDTYDALHMQALPPR
notes: as for B1
Turning to B4, the binding result is on record as “binds”.

B5: CD20-C5H4 CAR (other)
chain: QVQLVQSGAEVKKPGSSVKVSCKASGYTFTSYNMHWVRQAPGQGLEWMGAIYPGNGDTSYNPKFKGRVTITADKSTRTAYMELSSLRSEDTAVYYCARSYFYGSSSWYFDVWGQGTTVTVSSGGGGSGGGGSGGGGSGGGGSDIQLTQSPSFLSASVGDRVTITCRASSSVSSMHWYQQKPGKAPKPLIFATSNLASGVPSRFSGSGSGTEYTLTISSLQPEDFATYYCQQWIFNPPTFGGGTKVEIKTTTPAPRPPTPAPTIASQPLSLRPEACRPAAGGAVHTRGLDFACDIYIWAPLAGTCGVLLLSLVITLYCKRGRKKLLYIFKQPFMRPVQTTQEEDGCSCRFPEEEEGGCELRVKFSRSADAPAYQQGQNQLYNELNLGRREEYDVLDKRRGRDPEMGGKPRRKNPQEGLYNELQKDKMAEAYSEIGMKGERRRGKGHDGLYQGLSTATKDTYDALHMQALPPR
notes: as for B1
With B5, the binding result was “binds”.

B6: CD20-C5H2 CAR (other)
chain: QVQLVQSGAEVKKPGASVKVSCKASGYTFTSYNMHWVRQAPGQGLEWMGAIYPGNGDTSYNPKFKGRVTMTADKSTRTAYMELSSLRSEDTAVYYCARSYFYGSSSWYFDVWGQGTTVTVSSGGGGSGGGGSGGGGSGGGGSDIQLTQSPSFLSASVGDRVTITCRASSSVSSMHWYQQKPGKAPKPLIFATSNLASGVPSRFSGSGSGTEYTLTISSLQPEDFATYYCQQWIFNPPTFGGGTKVEIKTTTPAPRPPTPAPTIASQPLSLRPEACRPAAGGAVHTRGLDFACDIYIWAPLAGTCGVLLLSLVITLYCKRGRKKLLYIFKQPFMRPVQTTQEEDGCSCRFPEEEEGGCELRVKFSRSADAPAYQQGQNQLYNELNLGRREEYDVLDKRRGRDPEMGGKPRRKNPQEGLYNELQKDKMAEAYSEIGMKGERRRGKGHDGLYQGLSTATKDTYDALHMQALPPR
notes: as for B1
As to B6, the binding result is on record as “binds”.

B7: CD20-C8H4 CAR (other)
chain: QVQLVQSGAEVKKPGSSVKVSCKASGYTFTRYNMHWVRQAPGQGLEWMGAIYPGNGDTSYSQKFKGRVTITADKSTSTAYMELSSLRSEDTAVYYCARSFFYGSSDWYFDVWGQGTTVTVSSGGGGSGGGGSGGGGSGGGGSDIQLTQSPSFLSASVGDRVTITCRASSSVNNMHWYQQKPGKAPKPLIYATSNLASGVPSRFSGSGSGTEYTLTISSLQPEDFATYYCQQWIFNPPTFGQGTKLEIKTTTPAPRPPTPAPTIASQPLSLRPEACRPAAGGAVHTRGLDFACDIYIWAPLAGTCGVLLLSLVITLYCKRGRKKLLYIFKQPFMRPVQTTQEEDGCSCRFPEEEEGGCELRVKFSRSADAPAYQQGQNQLYNELNLGRREEYDVLDKRRGRDPEMGGKPRRKNPQEGLYNELQKDKMAEAYSEIGMKGERRRGKGHDGLYQGLSTATKDTYDALHMQALPPR
notes: as for B1
Take B7: the binding result is reported as “binds”.

B8: CD20-C2H1 CAR (other)
chain: QVQLVQSGAEVKKPGASVKVSCKASGYTFTNYWMHWVRQAPGQGLEWMGFITPTTGYPEYNQKFKDRVTMTADKSTSTAYMELSSLRSEDTAVYYCARRKVGKGVYYALDYWGQGTTVTVSSGGGGSGGGGSGGGGSGGGGSDIQMTQSPSSLSASVGDRVTITCRASGNIHNYLAWYQQKPGKVPKLLIYNTKTLADGVPSRFSGSGSGTDYTLTISSLQPEDVATYYCQHFWSSPWTFGGGTKVEIKTTTPAPRPPTPAPTIASQPLSLRPEACRPAAGGAVHTRGLDFACDIYIWAPLAGTCGVLLLSLVITLYCKRGRKKLLYIFKQPFMRPVQTTQEEDGCSCRFPEEEEGGCELRVKFSRSADAPAYQQGQNQLYNELNLGRREEYDVLDKRRGRDPEMGGKPRRKNPQEGLYNELQKDKMAEAYSEIGMKGERRRGKGHDGLYQGLSTATKDTYDALHMQALPPR
notes: CAR on cell surface
Turning to B8, the binding result is recorded as “binds”.

B9: CD20-C2H2 CAR (other)
chain: QVQLVQSGAEVKKPGSSVKVSCKASGYTFTNYWMHWVRQAPGQGLEWMGFITPTTGYPEYNQKFKDRVTITADKSTSTAYMELSSLRSEDTAVYYCARRKVGKGVYYALDYWGQGTTVTVSSGGGGSGGGGSGGGGSGGGGSDIQMTQSPSSLSASVGDRVTITCRASGNIHNYLAWYQQKPGKVPKLLIYNTKTLADGVPSRFSGSGSGTDYTLTISSLQPEDVATYYCQHFWSSPWTFGGGTKVEIKTTTPAPRPPTPAPTIASQPLSLRPEACRPAAGGAVHTRGLDFACDIYIWAPLAGTCGVLLLSLVITLYCKRGRKKLLYIFKQPFMRPVQTTQEEDGCSCRFPEEEEGGCELRVKFSRSADAPAYQQGQNQLYNELNLGRREEYDVLDKRRGRDPEMGGKPRRKNPQEGLYNELQKDKMAEAYSEIGMKGERRRGKGHDGLYQGLSTATKDTYDALHMQALPPR
notes: as for B1
Take B9: the binding result is “binds”.

B10: CD20-C8H2 CAR (other)
chain: QVQLVQSGAEVKKPGASVKVSCKASGYTFTRYNMHWVRQAPGQRLEWMGAIYPGNGDTSYSQKFKGRVTITADKSASTAYMELSSLRSEDTAVYYCARSFFYGSSDWYFDVWGQGTTVTVSSGGGGSGGGGSGGGGSGGGGSDIQLTQSPSFLSASVGDRVTITCRASSSVNNMHWYQQKPGKAPKPLIYATSNLASGVPSRFSGSGSGTEYTLTISSLQPEDFATYYCQQWIFNPPTFGQGTKLEIKTTTPAPRPPTPAPTIASQPLSLRPEACRPAAGGAVHTRGLDFACDIYIWAPLAGTCGVLLLSLVITLYCKRGRKKLLYIFKQPFMRPVQTTQEEDGCSCRFPEEEEGGCELRVKFSRSADAPAYQQGQNQLYNELNLGRREEYDVLDKRRGRDPEMGGKPRRKNPQEGLYNELQKDKMAEAYSEIGMKGERRRGKGHDGLYQGLSTATKDTYDALHMQALPPR
notes: as for B1
As to B10, the binding result is recorded as “binds”.
